In the DeepSol protein solubility set:

Assay: soluble on expression in E. coli; label from the status in PepcDB or PDB records

Soluble on expression in E. coli, not soluble:
MGSDKIHHHHHHDEFIQGIGNQNAQESGVWDFSMSISDMKFSQEDGAQTNPMIGMLITQIKDASLSGKIQVDAKKEKAFNLEMKLKAMGMDVPISLVGSLDNEGKEPKLYLATDMMEYIVAVADSMTDGAIDSSQLDTEKLKGKYIDLLAMNEESTKEWQDTIKEYQESEKERKQSAKEYKEFLEGLDKDTFEKKGDTITHTFTKKELQKLIKITTETSEKGKEQDPFEKVKDVSAKVSVNTKENKTNMLINVKPQQDKNVDMGLESLSSKISITQKAKKATISMPKKENILSEQEVEKIFSDSTSMTGLSTEDTTVAINQ
MGSDKIHHHHHHDKLDLSPIDYYGSGSYWKTEAQATAYIDGIHKHLRDAAWQHTITFGELRGGRFITGASSDGMGVSNGDIILQNFDETHTGVSKFGDLFGRITNLNLFIARVTDATYLSDEMKNFYLGEVYGLRAFYYFDLYRIYGGVPLRLTADVVEGVIDPNKLYMARSTPKEVMTQIKSDLNKSMEYFGNMNDFDPYKRGKKVYWSKAATECLMGEVYLWTSKVTTGDDVANPADLTIAKTHLESVLNNYNLKMLDDFSQVFNAKNKANDEIIFAIRFLEGEATNSNGTFTYNVGTGSTKNRYQANGEVFGDALDIQNTGNQTYEYNKAVYQNFDDADTRKEATFIASYNKDGKTGELSLYGTHVRKNIGYVNAQGARVYCGDYIFYRLPWVYLTLAEIANMEGDNAAVAKYINLVRKRAYGNAWDETLYAYPETADFTTNELAILHEKDKEFIQEGQRWWDLRRMTLTKGGTPLVFCKEGSLLGDAPILNKSTEAHKLLWPIEKTMLNKDPALEQTPGYK
MGSDKIHHHHHHDSDIDPVYVLSGDSMELMGGPNEVILTPDNPQALALTVYWSGDGRLALSDTLLQAPVNVAEITIQFSKDEHFTAPLNIAVDKNIHSRQFLCEELNSLLDRLGYEANEKAPLWIRMRSALAANIAPEYSNVMEVLVQSYRIELVLAQVLDKDWKNTSMTLASPAEDGIYKGFMGVNGWENWWLREANNVMWGNLGEEGKTFYASSEDSHWNFWFPNPSGCYYTTVNTVEGWWSALHVASLSVSGDVTGEMAYNKQSNQWTLPVNLATQSTLTISVSGKGSLYNRETTDIGPAIEQTVAFGGNSQNLLFGESADNISVTMPAGENLLVLDLSNPLQFTIGIGEDVPQPEVSQYLYFSGITNWEGFDDYLTLYDEAGLCYGGAHWIDSEWGYRAYTEQAWEPAYNAADGSTDLSGTLILAESKDNIPAPAQGLYVMDFNMKSLTYELTQVQTVTFTGLNDNWSESPMTQSAENPEIFTAEFIKEKKSPWGVKVLINNNWNLFFGGGSGILHLKHSESSAGFDGDDELEIGKTYVLTVDLGHQTYSYSLK
MGSDKIHHHHHHEDFLQKDPPSSPSQSVFWQKKSDFESALAGTYSVMYSGVFSQIMPCLDGLTDNAIVQHSEGTYGWAKTIAQGDLTPNQGGFVTDIYGNCYKGIARVHILMEQLDQYTGSDISADEKKFMLAQCKALRGYFYSWLYQCYKEVPVVTQSLDLNTMYQPKATRAEVLNRVMTDYDEAISELPDKLYSDSQTSGRFTVSAVKALKARILLFDAYDSNGKAISSKMEEVLTLLQSIKGYSLAARVRDNFISEKQLASPEIMFSVRFLRPNLTHSMDLYYGAWAVLDPTRNMVDAFECTDGKPWGESPLTVRPDESILYGNDDALKKAERAKMFMNRDRRLYESVNHSMMANFVDDGFKDEEVQVNESNNKGPTGFSALKYVQPTDVTPGYSTVSDADIVVLRYAHVLLMIAEAENEAHGATTTALNAINEVRTRSGQPAIEAGISQDDLRERIRNEWRIETCFEGLRYFQLKRWKLMDKRVNGVEDPAYPGYIKVYKPAFEFFPIPQSEIDKAGGVLKQDPAYE
MGSDKIHHHHHHEEPVGEFLPGQVESEENIEGIVTGAYAVLDGYYASDAINSGCSNWQFGDVVSDDAYKGGGGTGDQNQIHLMEIFNANPTGIDFEARWAALYEGIKRCNQAIRLLNGSEVKNKEQRLAEMRFLRGHYYFNLKIIYNQIPWIDETLVDPNEYNKKSNIEFSSDQLWEKILEEFSAAYKVLPESQADYGRPTKMAARAYMAKVYLYQSKWKECLEACDEVIQSGKYELFPDFRNVFLPENDNCSEIIFAIQLSINDGSPNNENGSYGDRLLPPGGPYPVYGFLRPTQNLVNAYKTDVKGLPYNDGKDVSENDYVDVRLDHTLARPNIPFMDVQLYDWTPREASVYGPYSPKKRLVSLNSTYYSPIWPYVNALNFYVIRYADLLLWRAEAAIETGDLETGRKYINMIRERAKNTQHVKTMDQSQDAANYKVGVYDEPFKSKNEAVQALRMERRLEMAHEGIRFFDLVRWGVADEVINAYIAKEKVFRSHLQNAHFVKGKHEYFPIPQSMIDICGTEVMKQNPGY
MGSDKIHHHHHHEEQKVCHMDDECVEVGQWQLGLALGYGERSNPVRDYDDIPIYLAPTLAYYGDRWFFDNGNLGYTLADEELFSVNLTTSFSSDSAYFYRWDPSNIFISGTSQLSSTPSAFTSRFQAFGAEPEPVFNELEDRKFTLLGGAEAFIYTPMGIINLALAHDLFDVHSGMEAKVKWLYNLSWTDWKFEFAAVANWKSEEIINYYYGVRPSENTYWSERYRAGSGTNLGLELTTQYIMSEHWELLFLVRYTDLADEITASPLVTESYTNTYFIGTAYRF
MGSDKIHHHHHHEGNATTTSYFLNDQQAIDAIDGLYERFHQEGCYGRELFWEQGAACDIVWGRTRGYNSLATLAYTGDESPLRDVFSRMYSTMSRANWIIQELVKKEKGTTLTAVEKRSLGEAYFSRGWAHYLIAYRYGTDKQGVPFVRYEDFPDDYDNSIPPQQATVMDNYKLIIEDMDKAIAYLPIFESYDADNRGRAHQAAAVAFKAKTYAYWATWDATQWNNVIEMVNQLENNYNRDLAPTFAELFSSDLKDYWNAEYLWTIPSIGGALPGGTEFPGIILENKGWGKYNGWGQMKPSYDIYEEMAKDGKGNDRLVRSILEYNQEFPFFGETRKFWSTSDLEAGFMINKYMDAFKYSDPVGEGAVSANGDWPTVRVNFPIIRFAEMLLFRAEAYLMTGQADKATADINRIRLRSNLTPLTGTATMKDLYHERRCELAFEFTDHLFDLKRWNRSSNADIKTLADKELNAHPRIRRYEDRANPESAFTIIGYEDYTNKNAYQAHMMVFPYPSEEITKSNGQLKQNEGY
MGSDKIHHHHHHFDGFGAVSGGGATSKLLFTYFSEKSDRKQVLESLFNKDNGLQLLKVEMGGDDQSTEGTESSHESEKGKISKNNYEFQLISEVREINPTIPICVLPWAFPGWIGNTPYDNVTETAEYVVNWLKIGRDTWNFDTFCVGVWNERNFSESYVKELRKILNLNGFNETLIVAGEGFRMDDSYSRLLDKRFINEYDIIG
MGSDKIHHHHHHGADFVKGDRTFAADAELGATVTTGNTETTSLKGRLDMKHELGNWENQYLLEALYKEDSGEETGKRYYGLVQGNYKFSDVNYMFANANHEIDPFTGFDSKSTISAGYGHKFVDTEKTTFAVEVGPGFQYKRLDDESAAEAGYDTEESWVAHGVMNFETEITDNSKFKQLFVADYGESLEGRSETSITANIVGALAMKFAVIVRYNSEPLDNKKSTDTETNMTLLYSF
MGSDKIHHHHHHGQYIKKETVNSQVYAVIYAEGLAGSAQWVSGFKMMKNDATIRHQVSRGNGGNPIVNDRIPMRFIIAPTDVANVTWMQAEGAGDGNGNLNADFRSTAATGCRSYKIAGDPNRKWRVPTQRELQLMWLFREPVGVIYPAAQMENVSSKIYWAATEEDAANAWYFDFKQGVPQCSWQLKTTSSNVRCVSDY
MGSDKIHHHHHHHILNKKSYKNGYDNISDTDSVYFNGVEKYARFADFPVQINIMQKFDYTLDQLMLRDDYEISLEEWSSILFQIIFALAVAQKEYSFAHNDIHSDNVMFSNTKEPYIYYHINDTIYKVPTFNRVAKLIDFARGTFKVDGKWYISDVFENGGEADGQYEYDLNDFKPNHSFDLARLASSIIDNVNVPEIEDILRTWIKTTSGYDVMEDKDTFDIYIKIAKECFNAVPTKVIKHKLFQQFKITKKQKPNNTYVYYY
